Laboratory results from patent US8487082B2, “Synthetic scFv analogue to the 6313/G2 (anti angiotensin II type 1 receptor) monoclonal antibody variable regions” (Queen Mary & Westfield College, priority 2008, dated 2013).

Experiments:
MDA-MB-231 cells = assay: In vivo hollow fiber assay; parameters: species or system balb/c nu/nu mice
Method: (§1) Hollow Fiber procedures followed the method of Hollingshead. (Hollingshead et al Life Sci 57 131-41 (1995)).
(§2) Polyvinylidene difluoride (PVDF) hollow fibers (500 kDa cut-off, 1 mm inner diameter; Spectrum Europe B.V., Breda, Netherlands) were flushed through with 70% ethanol using a blunt 21 gauge needle and 10 ml syringe. Fibers were then immersed in 70% ethanol for 72 hours, flushed through again with 70% ethanol, then distilled water, and then autoclaved at 131° C. Finally, before loading cell suspensions, fibers were flushed through with RPMI 1640 culture medium. Cells (MCF-7, T47D, and MDA-MB-231) were introduced into fibers at densities of 2.5 to 3.0×10^6 cells/ml. Fibers were then heat-sealed at 2 cm intervals and placed in Petri dishes containing 3 ml of the cell appropriate medium.
(§3) Cell-loaded hollow fiber segments were incubated at 37° C. in culture medium overnight before implantation into pure strain 5-6 week old female balb/c nu/nu mice. Fibers were implanted into the animals under anaesthesia (2% Isofluorane). Three 2 cm fibers, each containing one of the cell lines MCF-7, T47D, or MDA-MB-231, were implanted at both subcutaneous (s.c.) and intraperitoneal (i.p.) sites into each animal. For i.p. implants, a small incision was made through the skin and musculature of the ventral abdominal wall. Fibers were placed into the peritoneal cavity and both incisions were closed with metallic suture clips (Harvard Instruments, Edenbridge UK). For s.c. implants, a small incision was made dorsally. The fibers were implanted to the left of the dorsal midline in a cranial direction. The small incision was closed with metallic suture clips.
(§4) Mice (n=5/group) with hollow fiber implants were treated with R6313/G2 (0.07 mg/kg (2.5 nmol/kg), and 0.7 mg/kg (25 nmol/kg) in 0.1 ml PBS, subcutaneously) twice per day for six days. Control animals (n=5) received vehicle alone. 24 hours after the last injection, animals were killed by cervical dislocation and the fibers were recovered and transferred to pre-warmed RPMI 1640 medium containing 20% FBS for 30 minutes.
(§5) Cell viability was measured using a modified MTT assay. Fibers were incubated in RPMI 1640 with 20% FBS containing 1 mg/ml MTT, and incubated at 37° C. under […], 5% CO2 for 4 hours. The reagent was aspirated, and 2 ml sterile filtered 2.5% protamine sulphate (0.9 g NaCl, 2.5 g protamine sulphate in 100 ml water) was added. Specimens were stored at 4° C. for a minimum of 24 hours in the dark to fix the formazan product. Fresh protamine sulphate (2.5%) was added and fibers were stored for a further 2 to 4 hours at 4° C. Each fiber was transferred to a well in a 24 well plate, cut in half and air-dried overnight, protected from light. Dimethyl sulphoxide (DMSO) (300 μl) was added to each well and the formazan product extracted. An aliquot (190 μl) from each well was transferred to a 96 well plate and absorbance read at 540 nm using a Multiskan Ascent photometric microplate reader (Thermo labsystem). Treated values were calculated as a percentage of the controls.

T47D cells = assay: In vivo hollow fiber assay; parameters: species or system balb/c nu/nu mice; conditions: i.p. site, 0.7 mg/kg (25 nmol/kg) twice per day
Method: as §1, §2, §3, §4, §5

MCF-7 cells = assay: In vivo hollow fiber assay; parameters: species or system balb/c nu/nu mice
Method: as §1, §2, §3, §4, §5

[1] = Rat blood pressure (tail cuff); parameters: species or system Female Wistar rats; conditions: intact rats in vivo
Method: Rats were chosen for this part of the study in view of their greater tractability in blood pressure assays. Female Wistar rats were first acclimatised to handling and the blood pressure equipment for 4-5 days before experimentation. Blood pressure in the conscious animals was determined using a Kent Scientific Corporation (Torrington Conn., USA) Coda 6+ tail cuff system in which the animals were held in warmed restrainers while blood pressures were assessed. Animals were first stabilised and their basal blood pressure taken before treatment. They were then briefly removed from the restrainers for sc injection of R6313/G2, 0.4 mg/kg in sterile PBS (0.1 ml). Controls received PBS alone. Blood pressures were then taken at intervals over a period of 1 hour, before restoring to cages. The procedures were repeated daily for 3 days.

[2] = tested on: T-47D breast cancer cells; assay: Fluorimetric invasion assay (QCM cell invasion, ECM); format: cell-based; conditions: for T-47D cell invasion through ECM: scFv alone, 50 and 250 nmol/L, 24 h
Method: The method used is QCM™ Cell invasion assay (Chemicon Cat No. ECM555). This uses fluorimetric detection of cells which have broken through a reconstituted basement membrane matrix proteins (ECM) derived from the Engelbreth-Holm-Swam (EHS) mouse tumour (Repesh LA (1989) Invasion Metastasis 9: 192-208)
ECM-coated inserts were placed in 96-well plates and 100 μl of prewarmed serum-free medium added to the interior of the inserts in order to hydrate the ECM layer over 1-2 h at room temperature. Media was removed and 150 μl of serum free medium added to the wells of the 96-well plate housing the inserts. 100 μl of medium containing 10^5 cells/per insert was then introduced. The plate was covered and incubated at 37 C in a 5% CO2/95% air humidified incubator for 24 h. After removing cells from inside the insert and rinsing with PBS, the insert was replaced into a 96-well plate containing Cell Detachment Solution and incubated at 37 C for 30 min. Cells that had invaded through the ECM to the bottom of the insert were, in this way, dislodged from the insert for subsequent lysis and measurement of fluorescence using a 480/520 filter set in a Fluostar Optima fluorimeter (BMG Labtech), according to manufacturer's instructions.

breast cancer cells = assay: Caspase-driven apoptosis (summary statement); format: cell-based
Text: Cells were harvested using Trypsin/EDTA and counted.

B1: R6313/G2: murine scFv analogue of the 6313/G2 anti-AT1 receptor monoclonal antibody variable domains, SEQ ID NO:15 (protein)
scFv: YAAQPAMAQVKLQQSGPELEKPGASVKISCKASGYSFTGYNMNWVKQSNGKSLEWIGNIDPYYGGTTYNQKFKGKATLTVDKSSSTAYMQLKSLTSEDSAVYYCAREVDYWGQGTTVTVSSGGGGSGGGGSGGGGSDIELTQSPASLAVSLGQRATISYRASKSVSTSGYSYMHWNQQKPGQPPRLLIYLVSNLESGVPARFSGSGSGTDFTLNIHPVEEEDAATYYCQHIRELTRSEGTKLEIKRAAAGAPVPY
modifications: 12D
cell survival in hollow fibers in vivo (MDA-MB-231 cells; MBA MB 231, i.p. site, 0.7 mg/kg (25 nmol/kg) twice per day): inhibited | cell survival in hollow fibers in vivo (MDA-MB-231 cells; MDA MB 231, s.c. site, highest dose): inhibited at the highest dose | cell survival in hollow fibers in vivo (T47D cells): inhibited | cell survival in hollow fibers in vivo (MCF-7 cells; MCF7, i.p. site, 0.07 and 0.7 mg/kg (2.5 and 25 nmol/kg) twice per day): inhibited MCF7 cell survival | cell survival in hollow fibers in vivo (MCF-7 cells; MCF-7, s.c. site): dose dependently inhibited cell survival | resting blood pressure [1]: does not reduce and may even increase resting blood pressure | stress-induced increases in blood pressure [1]: significantly inhibits the stress-induced increases in blood pressure | inhibition of cell invasion ([2]; 250 nmol/L R6313/G2 with angiotensin II 100 nmol/L, 24 hour assay period): up to 25% | effect on T-47D cell invasion in the presence of angiotensin II ([2]; 250 nmol/L scFv, angiotensin II 100 nmol/L): significantly more pronounced | T-47D cell invasion through ECM [2]: inhibits T-47D cell invasion | T-47D cell invasion through ECM ([2]; listed as R6313/G2 clone12D): significantly inhibits T-47D cell invasion | caspase-driven apoptosis (breast cancer cells; angiotensin II omitted): omission of angiotensin blocks its effects | caspase-driven apoptosis (breast cancer cells; in the presence of up to 100 nmol angiotensin II per L): enhances caspase-driven apoptosis
